According to paper PMC2828913:

Molecular target: Collagen matrix (Purecol) (UniProt P02453)
Experiment: retention in a polymerised collagen gel

Sequence of UniProt P02453 (P02453 162-1217, chain 1 of 2): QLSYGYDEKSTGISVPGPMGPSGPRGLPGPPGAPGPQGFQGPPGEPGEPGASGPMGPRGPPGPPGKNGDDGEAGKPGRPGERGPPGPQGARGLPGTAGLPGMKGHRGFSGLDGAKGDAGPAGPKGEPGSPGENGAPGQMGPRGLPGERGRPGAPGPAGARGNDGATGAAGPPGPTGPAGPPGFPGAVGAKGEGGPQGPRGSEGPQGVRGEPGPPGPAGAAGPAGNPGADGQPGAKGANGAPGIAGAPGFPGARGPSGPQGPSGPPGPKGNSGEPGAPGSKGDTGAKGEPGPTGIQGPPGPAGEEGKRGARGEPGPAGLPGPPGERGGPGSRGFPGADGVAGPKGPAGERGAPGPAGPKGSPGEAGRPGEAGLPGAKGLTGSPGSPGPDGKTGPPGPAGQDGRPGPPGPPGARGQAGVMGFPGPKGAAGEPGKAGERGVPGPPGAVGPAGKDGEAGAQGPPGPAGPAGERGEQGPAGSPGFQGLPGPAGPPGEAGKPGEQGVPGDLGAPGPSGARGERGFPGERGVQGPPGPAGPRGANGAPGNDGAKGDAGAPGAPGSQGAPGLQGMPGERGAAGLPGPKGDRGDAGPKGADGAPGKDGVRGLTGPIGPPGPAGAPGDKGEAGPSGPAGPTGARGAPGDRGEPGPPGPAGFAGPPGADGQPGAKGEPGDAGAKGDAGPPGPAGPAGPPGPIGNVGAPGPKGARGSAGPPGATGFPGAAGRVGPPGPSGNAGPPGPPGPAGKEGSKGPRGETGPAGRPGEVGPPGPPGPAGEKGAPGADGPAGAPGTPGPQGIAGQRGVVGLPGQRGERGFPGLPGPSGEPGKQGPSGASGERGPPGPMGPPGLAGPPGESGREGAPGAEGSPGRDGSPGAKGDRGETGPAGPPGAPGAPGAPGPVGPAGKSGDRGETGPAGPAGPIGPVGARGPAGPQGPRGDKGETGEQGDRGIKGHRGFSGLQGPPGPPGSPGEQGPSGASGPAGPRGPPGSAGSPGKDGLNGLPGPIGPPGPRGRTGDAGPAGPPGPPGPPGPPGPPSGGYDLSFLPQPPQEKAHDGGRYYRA
Sequence of UniProt P02453 (P02465 80-1117, chain 2 of 2, further chain): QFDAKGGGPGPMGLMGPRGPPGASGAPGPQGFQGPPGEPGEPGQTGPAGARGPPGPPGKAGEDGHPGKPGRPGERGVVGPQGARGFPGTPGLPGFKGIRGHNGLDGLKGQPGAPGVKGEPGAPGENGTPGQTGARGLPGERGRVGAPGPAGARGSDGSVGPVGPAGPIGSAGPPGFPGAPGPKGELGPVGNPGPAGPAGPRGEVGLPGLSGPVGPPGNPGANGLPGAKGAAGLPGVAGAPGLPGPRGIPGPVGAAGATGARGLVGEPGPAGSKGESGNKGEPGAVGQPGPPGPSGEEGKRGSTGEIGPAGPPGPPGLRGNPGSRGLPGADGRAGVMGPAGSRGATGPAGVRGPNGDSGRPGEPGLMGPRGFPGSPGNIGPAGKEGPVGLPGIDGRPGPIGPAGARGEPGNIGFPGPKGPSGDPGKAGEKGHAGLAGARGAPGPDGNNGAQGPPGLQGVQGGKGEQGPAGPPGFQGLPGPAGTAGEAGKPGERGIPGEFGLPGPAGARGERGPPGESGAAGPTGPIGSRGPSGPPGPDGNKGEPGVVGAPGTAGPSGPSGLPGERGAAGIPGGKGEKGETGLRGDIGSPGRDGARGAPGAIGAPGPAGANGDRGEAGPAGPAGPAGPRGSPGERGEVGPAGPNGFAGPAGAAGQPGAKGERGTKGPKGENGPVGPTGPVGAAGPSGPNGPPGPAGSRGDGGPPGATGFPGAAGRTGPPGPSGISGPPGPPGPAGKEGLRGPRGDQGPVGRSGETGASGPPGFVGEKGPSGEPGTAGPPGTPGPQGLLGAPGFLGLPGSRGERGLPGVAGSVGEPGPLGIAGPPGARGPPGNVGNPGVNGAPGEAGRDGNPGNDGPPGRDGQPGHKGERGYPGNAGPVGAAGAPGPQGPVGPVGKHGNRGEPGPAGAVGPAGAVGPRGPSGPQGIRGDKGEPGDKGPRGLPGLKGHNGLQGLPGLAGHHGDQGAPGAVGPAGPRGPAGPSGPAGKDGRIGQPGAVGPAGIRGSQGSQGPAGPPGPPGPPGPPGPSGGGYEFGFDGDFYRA

Human VEGF165 (ligand) was tested, and the percent retained in the collagen gel after washes was > 80%.
